Measurements from patent US20180312587A1 (ADURO BIOTECH HOLDINGS EUROPE B V, published 2018).

Assays:
Assay in all cases: CELISA, CHO-K1 transfectants; average of two experiments
hSIRPαV8 (NA18570_V8) = target: T1, hSIRPαV8 (NA18570_V8) (human, UniProt P78324 31-504)
T1 construct: also called human SIRPαV8
Description: (§1) The binding specificity of antibody hSIRPα.50A to hSIRPα was compared antibody KWAR23 (Canadian Patent 2939293 A1), in a CELISA format. CHO-K1 cells were transiently transfected with hSIRPαV1, hSIRPαV2, hSIRPβ1, and hSIRPγ (GenBank accession: NM_018556.3) (SEQ ID NO: 39) cDNAs. Subsequently, hSIRPα binding was assessed by CELISA using CHO-K1.hSIRPαV1, CHO-K1.hSIRPαV2, CHO-K1.hSIRPβ1, and CHO-K1.hSIRPγ cells. Detection of bound antibody was performed with goat-anti-mouse IgG-HRP (Southern Biotech) for mouse antibodies including hSIRPα.50A and control antibodies or, alternatively, with goat-anti-human IgG-HRP conjugate (Jackson Immuno Research) for the KWAR23 antibody. KWAR23 (SEQ ID NO: 130; SEQ ID NO: 131) was expressed as a chimeric human IgG4 kappa antibody in CHO cells. As shown in FIG. 2 and the following Table 9, KWAR23 antibody cross-reacts with all members of the SIRP receptor family tested: it binds to hSIRPαV1, hSIRPαV2, hSIRPβ1, and hSIRPγ.
(§2) In addition, the specificity of hSIRPα.50A for all known of hSIRPα alleles (allelic variants as described by Takenaka et al., 2007, Nat Immunol. 8:1313-1323) was further investigated by CELISA using the same strategy as above. To this end, hSIRPα.50A binding was assessed using CHO-K1 cells that were transiently transfected with cDNAs encoding full length hSIRPαV1, hSIRPαV2, hSIRPαV3 (NA07056_V3) (SEQ ID NO: 43), hSIRPαV4 (NA11832_V4) (SEQ ID NO: 45), hSIRPαV5 (NA18502_V5) (SEQ ID NO: 47), hSIRPαV6 (NA18507_V6) (SEQ ID NO: 49), hSIRPαV8 (NA18570_V8) (SEQ ID NO: 51), and hSIRPαV9 (NA18943_V9) (SEQ ID NO: 53).

hSIRPαV6 (NA18507_V6) = target: T2, hSIRPαV6 (NA18507_V6) (human, UniProt P78324 31-504)
T2 construct: also called human SIRPαV6
Description: as §1, §2

hSIRPαV4 (NA11832_V4) = target: T3, hSIRPαV4 (NA11832_V4) (human, UniProt P78324 31-504)
T3 construct: also called human SIRPαV4
T3 chain: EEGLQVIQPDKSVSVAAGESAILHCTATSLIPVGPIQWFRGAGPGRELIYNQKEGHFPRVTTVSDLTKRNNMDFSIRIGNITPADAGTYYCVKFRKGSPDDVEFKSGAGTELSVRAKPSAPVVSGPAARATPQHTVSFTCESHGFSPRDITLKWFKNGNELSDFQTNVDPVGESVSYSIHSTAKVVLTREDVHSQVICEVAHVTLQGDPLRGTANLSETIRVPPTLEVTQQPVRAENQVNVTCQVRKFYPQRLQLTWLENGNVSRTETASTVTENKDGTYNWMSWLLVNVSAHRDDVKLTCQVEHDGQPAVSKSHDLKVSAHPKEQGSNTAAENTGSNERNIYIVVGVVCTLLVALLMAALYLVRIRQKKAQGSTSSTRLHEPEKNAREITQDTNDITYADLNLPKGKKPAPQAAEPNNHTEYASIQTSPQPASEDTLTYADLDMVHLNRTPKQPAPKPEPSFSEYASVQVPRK
Description: as §1, §2

hSIRPαV3 (NA07056_V3) = target: T4, hSIRPαV3 (NA07056_V3) (human, UniProt P78324 31-504)
T4 construct: also called human SIRPαV3
Description: as §1, §2

hSIRPαV5 (NA18502_V5) = target: T5, hSIRPαV5 (NA18502_V5) (human, UniProt P78324 31-504)
T5 construct: also called human SIRPαV5
Description: as §1, §2

hSIRPαV9 (NA18943_V9) = target: T6, hSIRPαV9 (NA18943_V9) (human, UniProt P78324 31-504)
T6 construct: also called human SIRPαV9
Description: as §1, §2

human SIRPα variant 1 = target: T7, human SIRPα variant 1 (human, UniProt P78324 31-504)
T7 construct: full length ORF on transfected CHO-K1 or HEK293 cells; entry includes the signal peptide; also called hSIRPαV1; SIRPαV1
Description: as §1, §2

human SIRPα variant 2 = target: T8, human SIRPα variant 2 (human, UniProt P78324 31-504)
T8 construct: full length ORF on transfected CHO-K1 cells; also called hSIRPαV2; SIRPαV2
Description: as §1, §2

T4 sequence (P78324 other isoform, or with tags, fused parts or gaps limits assumed): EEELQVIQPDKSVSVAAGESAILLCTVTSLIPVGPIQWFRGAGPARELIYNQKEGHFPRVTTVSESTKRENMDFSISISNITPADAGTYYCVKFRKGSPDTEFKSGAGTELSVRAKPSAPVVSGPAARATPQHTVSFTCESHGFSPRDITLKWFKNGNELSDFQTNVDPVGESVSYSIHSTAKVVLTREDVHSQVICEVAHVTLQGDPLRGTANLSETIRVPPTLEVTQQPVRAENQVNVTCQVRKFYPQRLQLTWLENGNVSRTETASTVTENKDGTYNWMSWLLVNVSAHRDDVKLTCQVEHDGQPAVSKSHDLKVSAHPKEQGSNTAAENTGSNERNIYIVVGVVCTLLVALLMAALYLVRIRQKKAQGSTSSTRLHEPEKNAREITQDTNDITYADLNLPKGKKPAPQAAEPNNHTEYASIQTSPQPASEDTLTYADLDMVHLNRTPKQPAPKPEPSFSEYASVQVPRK
T2 sequence (P78324 31-504 S105P limits assumed): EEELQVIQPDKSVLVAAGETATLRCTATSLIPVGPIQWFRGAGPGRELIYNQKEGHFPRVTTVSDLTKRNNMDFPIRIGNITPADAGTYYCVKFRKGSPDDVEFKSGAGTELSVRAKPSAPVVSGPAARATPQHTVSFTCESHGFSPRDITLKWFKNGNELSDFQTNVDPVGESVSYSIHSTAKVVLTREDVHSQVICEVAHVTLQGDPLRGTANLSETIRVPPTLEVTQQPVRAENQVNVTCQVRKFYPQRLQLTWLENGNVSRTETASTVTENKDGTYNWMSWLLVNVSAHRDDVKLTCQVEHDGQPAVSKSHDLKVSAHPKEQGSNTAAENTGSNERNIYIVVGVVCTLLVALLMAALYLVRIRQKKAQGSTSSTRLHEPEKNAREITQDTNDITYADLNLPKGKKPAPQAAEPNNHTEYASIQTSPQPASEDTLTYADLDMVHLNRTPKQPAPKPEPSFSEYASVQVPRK
T5 sequence (P78324 other isoform, or with tags, fused parts or gaps limits assumed): as the sequence (P78324 31-504 S105P limits assumed) above, with S12F, P75S counted along it
T1 sequence (P78324 other isoform, or with tags, fused parts or gaps limits assumed): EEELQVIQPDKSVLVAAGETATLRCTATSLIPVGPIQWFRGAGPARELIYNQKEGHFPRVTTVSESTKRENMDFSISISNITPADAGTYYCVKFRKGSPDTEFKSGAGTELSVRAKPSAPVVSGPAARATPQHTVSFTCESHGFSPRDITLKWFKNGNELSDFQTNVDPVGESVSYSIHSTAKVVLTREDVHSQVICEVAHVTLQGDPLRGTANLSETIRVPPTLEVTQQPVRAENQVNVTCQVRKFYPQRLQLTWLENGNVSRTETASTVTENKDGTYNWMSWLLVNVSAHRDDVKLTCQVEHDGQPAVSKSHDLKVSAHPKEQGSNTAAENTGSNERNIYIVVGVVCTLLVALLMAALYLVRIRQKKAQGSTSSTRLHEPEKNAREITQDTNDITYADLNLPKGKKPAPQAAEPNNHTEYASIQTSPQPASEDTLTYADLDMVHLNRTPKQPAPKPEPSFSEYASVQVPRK
T7 sequence (P78324 31-504 limits assumed, change not shown): as the sequence (P78324 31-504 S105P limits assumed) above, with P75S counted along it
T6 sequence (P78324 31-504 G109S limits assumed): as the sequence (P78324 31-504 S105P limits assumed) above, with P75S, G79S counted along it
T8 sequence (P78324 other isoform, or with tags, fused parts or gaps mutant limits assumed): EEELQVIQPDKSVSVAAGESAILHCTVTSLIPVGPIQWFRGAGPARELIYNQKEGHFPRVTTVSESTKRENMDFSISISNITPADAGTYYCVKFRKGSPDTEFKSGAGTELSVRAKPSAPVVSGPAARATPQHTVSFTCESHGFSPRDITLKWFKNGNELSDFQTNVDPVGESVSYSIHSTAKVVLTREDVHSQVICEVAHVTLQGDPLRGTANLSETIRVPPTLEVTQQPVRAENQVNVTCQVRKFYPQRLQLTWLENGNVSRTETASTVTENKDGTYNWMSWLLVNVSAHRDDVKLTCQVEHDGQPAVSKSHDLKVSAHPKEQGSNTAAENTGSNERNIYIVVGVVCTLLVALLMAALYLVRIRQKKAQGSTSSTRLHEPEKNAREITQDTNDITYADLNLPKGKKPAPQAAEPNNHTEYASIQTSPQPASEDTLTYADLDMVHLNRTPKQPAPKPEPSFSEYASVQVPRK

EC50 (hSIRPαV8 (NA18570_V8)): 0.644 nM | EC50 (hSIRPαV6 (NA18507_V6)): 0.954 nM | EC50 (hSIRPαV4 (NA11832_V4)): 0.824 nM | EC50 (hSIRPαV3 (NA07056_V3)): 0.688 nM | EC50 (hSIRPαV5 (NA18502_V5)): 0.765 nM | EC50 (hSIRPαV9 (NA18943_V9)): 0.733 nM | EC50 (human SIRPα variant 1): 0.936 nM | EC50 (human SIRPα variant 2): 0.665 nM
B1: hSIRPα.50A (antibody, V domains shown)
VH: QVQLQQSGPELVKPGASVRISCKASGFTFTNYYIHWVKQRPGQGLEWIGWIYPGNVNTKYNEKFKAKATLTADKSSTTAYMQLSSLASEDSAVYFCARPTIIATDFDVWGAGTTVTVSS
VL: DIVMTQSHKFMSTSVGDRVNITCKASQGVGTAVGWYQQKPGQSPRLLIYWASTRHTGVPDRFTGSGSGTDFSLAISNVQSEDLADYFCQQYSTYPFTFGGGTNLEIK
notes: light chain constant domain not tied; also called mouse hSIRPα.50A; hSIRPα.50A.mIgG1
